# Experimental data reported in PMC10819093.
# What was measured:
# [1] = biological target: HIV-1 gp41 protein (surface plasmon resonance) (HIV-1); assay: SPR; BIAcore 3000; HIV-1 proteins amine coupled to CM-5 chips (50 µg/mL in 20 mM sodium acetate); serially diluted antibody injected at 30 µL/minute for about 100 s in HBS (10 mM HEPES, 150 mM NaCl, 3 mM EDTA)
# [2] = biological target: HIV-1 gp120 protein (surface plasmon resonance) (HIV-1); assay: as above
Substance,Kd [1],Kd [2]
trispecific antibody iMab + PRO140 + 10E8,6.12 nM,–
trispecific antibody iMab + PRO140 + PGDM1400,–,0.46 nM
trispecific antibody iMab + PRO140 + PGT121,–,0.59 nM
